The record followed here is publication PMC4656083 (Chemistry & biology, 2015).

Assay in all cases: cross-linking
The target of assay [1] is AcpP (acyl carrier protein) loaded with crosslinking probe DH8 (E. coli) (UniProt P0A6A8).
Assay [2] addresses AcpP (acyl carrier protein) loaded with crosslinking probe DH10X (E. coli) (UniProt P0A6A8).
Assay [3] has as its target AcpP (acyl carrier protein) loaded with crosslinking probe DH10 (E. coli) (UniProt P0A6A8).
Assay [4] addresses AcpP (acyl carrier protein) loaded with crosslinking probe DH6 (E. coli) (UniProt P0A6A8).
In assay [5] the target is T1, FabA, β-hydroxyacyl-AcpP dehydratase (wild type) (E. coli, UniProt P0A6Q3 2-172).
T1 sequence: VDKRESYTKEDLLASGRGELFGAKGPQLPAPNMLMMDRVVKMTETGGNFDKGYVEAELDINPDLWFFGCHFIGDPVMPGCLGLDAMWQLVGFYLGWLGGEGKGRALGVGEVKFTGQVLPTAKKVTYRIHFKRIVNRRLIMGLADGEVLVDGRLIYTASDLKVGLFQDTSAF

On to FabA R137E (enzyme), for which the percent complex formation (crosslinking) in assay [1], in assay [2], in assay [3] and in assay [4] was < 50% throughout.
For FabA F171A (enzyme), the crosslinking efficiency relative to FabA WT in assay [2] and in assay [3] was 50% throughout.
Regarding FabA F165A (enzyme), the crosslinking efficiency relative to FabA WT in assay [2] and in assay [3] was 50% throughout.
As for FabA F92A (enzyme), the crosslinking efficiency relative to WT FabA in assay [1], in assay [2], in assay [3] and in assay [4] was > 50% throughout.
Consider FabA L94A (enzyme), for which the crosslinking efficiency relative to WT FabA in assay [1], in assay [2], in assay [3] and in assay [4] was > 50% each time.
Turning to FabA L164A (enzyme), the crosslinking efficiency relative to WT FabA in assay [1], in assay [2], in assay [3] and in assay [4] was > 50% in each case.

B1: AcpP (acyl carrier protein) loaded with crosslinking probe DH10 (natural protein, E. coli)
chain: STIEERVKKIIGEQLGVKQEEVTNNASFVEDLGADSLDTVELVMALEEEFDTEIPDEEAEKITTVQAAIDYINGHQA
modifications: S36 carries the phosphopantetheine analogue of probe DH10 (sulfonyl-3-alkyne warhead, mimics a C10 acyl chain)
B1: in assay [5], the binding result is given as “binds”.
